This passage reports Kd results from paper PMC3534030 (2012).

The experiment addresses EGFR (Homo sapiens, UniProt P00533). Description: 125I-EGF radioligand saturation binding on human bone marrow mesenchymal progenitor cells.

B1: EGF (protein)
chain: NSYPGCPSSYDGYCLNGGVCMHIESLDSYTCNCVIGYSGDRCQTRDLRWWELR
modifications: 125I-labeled EGF
The molecule B1 gave a Kd of 0.0349 nM.

Usually Kd stands for the concentration at which binding is half-saturated.
